Tests used:
[1] = system: human iPS cell line QHJI-derived cartilaginous particles; assay: In vitro integration of paired cartilaginous particles in round-bottom 96-well plate, cultured with FGFR inhibitor; assay type: cell-based
Experimental: (§1) Two cartilaginous particles were put into a well of a round-bottom 96-well plate (see FIGS. 1A and 1B) and cultured under the conditions of 37° C. and 5% CO2 in chondrogenic medium (DMEM (Sigma) with 1% ITS, 1% FBS, 2 mM L-glutamine (Thermo), 1×10^−4 M non-essential amino acids (Thermo), 1 mM sodium pyruvate (Thermo), 50 U of penicillin, […] streptomycin, 50 μg/mL ascorbic acid (Nacalai), 10 ng/mL BMP2 (Peprotech), 10 ng/mL TGFβ1 (Peprotech), and 10 ng/mL GDF5 (PTT)). In total, 84 wells, each of which contained a pair of cartilaginous particles, were prepared. The wells were divided into 7 groups (12 pairs per group), and each was subjected to macroscopic and histological analyses at the predetermined time points ([…] after the start of the integration experiment). The medium was changed every day gently and carefully so as not to change the positions of the cartilaginous particles.
To further investigate the effects of FGF on the integration, an FGFR inhibitor, NVP-BGJ398 (ChemScene LLC), was used in the culture. NVP-BGJ398 was dissolved in DMSO to prepare a 50 μM stock solution. In total, 30 new pairs of cartilaginous particles were cultured under the conditions described in the above (3). Fifteen pairs were cultured in a medium supplemented with vehicle (0.3 μL of DMSO), and the other 15 pairs were cultured in a medium supplemented with 0.3 μL of the NVP-BGJ398 stock solution (final concentration: 50 nM). After 14 days of culture, the samples were subjected to histological analysis.
(§2) The pairs of cartilaginous particles were fixed with 4% paraformaldehyde, processed, and embedded in paraffin. 20 to 150 serial sections were prepared around the integrated portion of the sample so that the sections contain the most contact area between the paired cartilaginous particles (see FIG. 1C). Serial sections with the greatest contact portion were selected and used for further analysis. The sections were stained with hematoxylin-eosin and safranin O-fast green-iron hematoxylin and immunostained with a goat anti-type I collagen antibody (Souther Biotech) and an anti-type II collagen antibody (Thermo).
(§3) For statistical analysis, the degree of integration of cartilaginous particles at each time point was graded as follows: grade 0, no integration; grade 1, perichondrium-like membrane integration; grade 2, cartilage integration (Table 2). The grades are non-parametric data, and statistical analysis was performed using the Steel-Dwass test. All the samples were graded as 0 (no integration) on day 0 and graded as 2 (cartilage integration) on day 56.

[2] = system: human iPS cell line QHJI-derived cartilaginous particles; assay: In vitro integration of paired cartilaginous particles in round-bottom 96-well plate, cultured with FGF18; assay type: cell-based; conditions: for Grade 0 No integration (number of pairs) / Grade 1 Integration by perichondrium-like membrane (number of pairs) / Grade2 Integration by cartilage (number of pairs): 15 pairs per group
Experimental: as §1
Recombinant human FGF18 (PeproTech) was dissolved in phosphate-buffered saline (PBS) to prepare a stock solution (100 μg/mL). In total, 90 pairs of cartilaginous particles were cultured under the conditions described in the above (3). One pair per well was cultured in 0.3 mL of medium. Forty-five pairs were cultured in a medium supplemented with vehicle (0.3 μL of PBS), and the other 45 pairs were cultured in a medium supplemented with 0.3 μL of the FGF18 stock solution (final concentration: 100 ng/mL). The 45 pairs in each treatment group were further separated into three equal-sized groups and subjected to histological analysis (3, 7, or 14 days after the start of the experiment).
as §2, §3

[3] = Day 14, NVP-BGJ398 50 nM, 15 pairs per group, P < 0.01 vs Vehicle (Steel-Dwass)
[4] = Day 14, FGF18 100 ng/mL, P < 0.01 vs Vehicle (Steel-Dwass)

Molecule | Grade 0 No integration (number of pairs) [1, 3] | Grade 1 Integration by perichondrium-like membrane (number of pairs) [1, 3] | Grade2 Integration by cartilage (number of pairs) [1, 3] | Pairs of cartilaginous particles that showed integration ([1]; Day 14, NVP-BGJ398 50 nM, 15 pairs, vehicle 11 out of 15) | Effect of addition to the medium on integration of cartilaginous particles ([1]; NVP-BGJ398 50 nM in medium) | Grade 0 No integration (number of pairs) ([2]; Day 3, FGF18 100 ng/mL) | Grade 1 Integration by perichondrium-like membrane (number of pairs) ([2]; Day 3, FGF18 100 ng/mL) | Grade2 Integration by cartilage (number of pairs) ([2]; Day 3, FGF18 100 ng/mL) | Grade 0 No integration (number of pairs) ([2]; Day 7, FGF18 100 ng/mL) | Grade 1 Integration by perichondrium-like membrane (number of pairs) ([2]; Day 7, FGF18 100 ng/mL) | Grade2 Integration by cartilage (number of pairs) ([2]; Day 7, FGF18 100 ng/mL) | Grade 0 No integration (number of pairs) [2, 4] | Grade 1 Integration by perichondrium-like membrane (number of pairs) [2, 4] | Grade2 Integration by cartilage (number of pairs) [2, 4] | Integration of treated cartilaginous particles (observation) ([2]; Day 14, FGF18 100 ng/mL, vehicle showed minimal integration) | Integration grade versus vehicle-treated pairs (statistics) ([2]; Day 14, Steel-Dwass test) | Effect of addition to the medium on integration of cartilaginous particles ([2]; FGF18 100 ng/mL in medium) | Histological finding in treated cartilaginous particles ([2]; FGF18 100 ng/mL, safranin O-fast green-iron hematoxylin sections)
CCN1CCN(c2ccc(Nc3cc(N(C)C(=O)Nc4c(Cl)c(OC)cc(OC)c4Cl)ncn3)cc2)CC1 [NVP-BGJ398] | 15 | 0 | 0 | no pairs | inhibited the integration of cartilaginous particles |  |  |  |  |  |  |  |  |  |  |  |  | 
FGF18: Recombinant human FGF18 (PeproTech), an FGF receptor agonist added to the culture medium (protein, UniProt O76093 28-207, looked up) Fibroblast growth factor 18: EENVDFRIHVENQTRARDDVSRKQLRLYQLYSRTSGKHIQVLGRRISARGEDGDKYAQLLVETDTFGSQVRIKGKETEFYLCMNRKGKLVGKPDGTSKECVFIEKVLENNYTALMSAKYSGWYVGFTKKGRPRKGPKTRENQQDVHFMKRYPKGQPELQKPFKYTTVTKRSRRIRPTHPA |  |  |  |  |  | 12 | 3 | 0 | 10 | 5 | 0 | 1 | 14 | 0 | substantial integration | Significant difference | accelerated the integration of cartilaginous particles | thick connection of the perichondrium-like membranes

Reference: patent US20210299331A1, “PLURIPOTENT STEM CELL-DERIVED PLATE-SHAPED CARTILAGE AND METHOD FOR PRODUCING THE SAME” (KYOTO UNIVERSITY, priority 2018, published 2021)
